Target: the molecule itself
Experiment: native gel or EMSA; ICAR-purified α-his subunits alone (10 or 20 μg) on nondenaturing 4–15% or 5–10% gradient gels, 55 V, 4 °C; self-assembly into single and double α-rings

B1: Methanococcus maripaludis S2 20S proteasome α subunit, C-terminally hexahistidine-tagged, wild type (natural protein, UniProt Q6M0L9 1-259, looked up)
chain: MQQMVPASGYDRAITIFSPEGRLYQVEYAREAVRRGTTAVGIKCKDGVVLAVDRRITSKLIDVSSIEKIFQIDDHIVAATSGLVADARVLIDRARIEAQMNRVSYGEAITVEALAKKICDIKQAYTQHGGARPFGLALLITGIDRHSARLFETDPSGALIEYKATAIGSGRPIAMEVLESKYDENMTVSEGMELALYALSKTTEELKPENIDMAIIKDSGKLVEKISVDEIEKIVKAVYEKVKAEEEEAEKNKGEEDSE
notes: Proteasome subunit alpha of Methanococcus maripaludis S2, cloned by PCR from genomic DNA; expected Mr of α-his 29.5 kDa; Exists as single rings (SR), double rings (DR) and non-ring species; also called α-his; WT α; source: also Sephacryl S-300 fractions; also in lysate (lysate mixing) or coexpressed with β subunits; not shown: His6, C-terminal, kept
Q: Does B1 bind?
A: binds

Reference: publication PMC4541365, “Alpha-ring Independent Assembly of the 20S Proteasome” (Scientific Reports, 2015)
